# Assay results taken from PMC7095341.
# B1: human CD26 (dipeptidyl peptidase 4), residues 39–766, His-tagged, P27487 39-766 (receptor)
# chain: SRKTYTLTDYLKNTYRLKLYSLRWISDHEYLYKQENNILVFNAEYGNSSVFLENSTFDEFGHSINDYSISPDGQFILLEYNYVKQWRHSYTASYDIYDLNKRQLITEERIPNNTQWVTWSPVGHKLAYVWNNDIYVKIEPNLPSYRITWTGKEDIIYNGITDWVYEEEVFSAYSALWWSPNGTFLAYAQFNDTEVPLIEYSFYSDESLQYPKTVRVPYPKAGAVNPTVKFFVVNTDSLSSVTNATSIQITAPASMLIGDHYLCDVTWATQERISLQWLRRIQNYSVMDICDYDESSGRWNCLVARQHIEMSTTGWVGRFRPSEPHFTLDGNSFYKIISNEEGYRHICYFQIDKKDCTFITKGTWEVIGIEALTSDYLYYISNEYKGMPGGRNLYKIQLSDYTKVTCLSCELNPERCQYYSVSFSKEAKYYQLRCSGPGLPLYTLHSSVNDKGLRVLEDNSALDKMLQNVQMPSKKLDFIILNETKFWYQMILPPHFDKSKKYPLLLDVYAGPCSQKADTVFRLNWATYLASTENIIVASFDGRGSGYQGDKIMHAINRRLGTFEVEDQIEAARQFSKMGFVDNKRIAIWGWSYGGYVTSMVLGSGSGVFKCGIAVAPVSRWEYYDSVYTERYMGLPTPEDNLDHYRNSTVMSRAENFKQVEYLLIHGTADDNVHFQQSAQISKALVDVGVDFQAMWYTDEDHGIASSTAHQHIYTHMSHFIKQCFSLP
# modifications: here or on the partner: N229-linked carbohydrate
# Target: MERS-CoV spike receptor binding domain (RBD), residues 367–606, His-tagged (MERS-CoV), K0BRG7
# Experiment: SPR
# Settings: remark: other sources report otherwise
binder,measurement,value
B1,Kd,16.7 nM
same,koff,0.00299 s⁻¹
same,kon,179000 M⁻¹ s⁻¹
